Data: patent publication US20070128672A1 (ST VINCENT S HOSPITAL SYDNEY, published 2007)
Like-named read-outs stand apart in the source and are kept apart here.

T1: CEA (UniProt P06731 35-685)
T1 sequence (looked up): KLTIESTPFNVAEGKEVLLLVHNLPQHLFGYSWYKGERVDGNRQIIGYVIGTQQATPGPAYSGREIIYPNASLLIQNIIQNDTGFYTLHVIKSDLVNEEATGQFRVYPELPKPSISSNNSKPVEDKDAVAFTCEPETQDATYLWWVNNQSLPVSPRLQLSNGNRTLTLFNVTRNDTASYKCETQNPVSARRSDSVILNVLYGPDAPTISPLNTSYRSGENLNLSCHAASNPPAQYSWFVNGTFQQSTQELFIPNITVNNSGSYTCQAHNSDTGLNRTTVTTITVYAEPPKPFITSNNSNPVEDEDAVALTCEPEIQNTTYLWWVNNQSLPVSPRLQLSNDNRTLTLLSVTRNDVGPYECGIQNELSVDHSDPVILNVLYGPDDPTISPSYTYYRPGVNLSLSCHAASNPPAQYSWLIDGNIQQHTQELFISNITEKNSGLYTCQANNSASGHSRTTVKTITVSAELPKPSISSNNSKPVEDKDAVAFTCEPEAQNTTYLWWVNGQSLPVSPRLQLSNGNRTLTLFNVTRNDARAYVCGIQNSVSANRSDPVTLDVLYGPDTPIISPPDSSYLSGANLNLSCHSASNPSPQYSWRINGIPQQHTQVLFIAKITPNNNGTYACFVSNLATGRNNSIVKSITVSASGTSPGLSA


How the values were obtained:
[1] = molecular target: T2, recombinant p53 (wild type, whole protein) (UniProt P04637 1-393, limits assumed); assay: ELISA, soluble Fab, detected with 9E10 and AP goat anti-mouse
T2 construct: mature; Also tested unpurified in bacterial lysates; also called whole p53; full length p53

[2] = molecular target: T3, p53 central domain (residues 95-298) (UniProt P04637 95-298); assay: as above
T3 construct: range 95-298; Carries the vector's tag (purified as whole p53 on Ni2+ resin); also called central domain of p53

bovine serum albumin [3] = molecular target: T4, bovine serum albumin (bovine, UniProt P02769 25-607); assay: cross reactivity ELISA, Fab detected with 9E10 and AP goat anti-mouse
T4 construct: also called BSA

CEA = molecular target: T1, CEA; assay: ELISA, crude Fab supernatant, detected with 9E10
[4] = molecular target: T5, ErbB2 extracellular domain (UniProt P04626 23-652, limits assumed); assay: ELISA, crude Fab supernatant, detected with 9E10
T5 construct: extracellular domain

bovine serum albumin [5] = molecular target: T4, bovine serum albumin; assay: ELISA, crude Fab supernatant, detected with 9E10
[6] = molecular target: T3, p53 central domain (residues 95-298); assay: immunoblot of purified central domain, Fab bacterial supernatant
[7] = molecular target: T6, p53 deletion construct 18 (residues 44-393) (human, UniProt P04637 44-393); assay: immunoblot of E. coli lysates, Fab detected with 9E10 and HRP goat anti-mouse
T6 construct: In E. coli lysate on an immunoblot; also called the 18 construct

[8] = molecular target: T2, recombinant p53 (wild type, whole …); assay: SPR (BIAcore), p53 amine-coupled to a CM5 chip, Fab 10-200 nM injected, global fit, 1:1 model with drifting baseline
[9] = molecular target: T2, recombinant p53 (wild type, whole …)
[10] = molecular target: T3, p53 central domain (residues 95-298); assay: ELISA, detected with HRP goat anti-human
[11] = molecular target: T7, p53 carboxy terminal domain (residues 283-393) (UniProt P04637 283-393); assay: ELISA, detected with HRP goat anti-human
T7 construct: Carries the vector's tag; also called C-terminal domain; carboxy terminal domain of the p53

bovine serum albumin [12] = molecular target: T4, bovine serum albumin; assay: cross reactivity ELISA, purified antibody, HRP goat anti-human
hen egg white lysozyme = hen egg white lysozyme (hen, UniProt P00698 19-147); assay: as above
hen egg white lysozyme, sequence (P00698 19-147): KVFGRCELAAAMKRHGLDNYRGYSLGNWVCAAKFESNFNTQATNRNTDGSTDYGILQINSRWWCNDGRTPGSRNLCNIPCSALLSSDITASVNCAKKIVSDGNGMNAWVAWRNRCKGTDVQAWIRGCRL

T6 sequence (P04637 44-393 limits assumed, stated change not applied): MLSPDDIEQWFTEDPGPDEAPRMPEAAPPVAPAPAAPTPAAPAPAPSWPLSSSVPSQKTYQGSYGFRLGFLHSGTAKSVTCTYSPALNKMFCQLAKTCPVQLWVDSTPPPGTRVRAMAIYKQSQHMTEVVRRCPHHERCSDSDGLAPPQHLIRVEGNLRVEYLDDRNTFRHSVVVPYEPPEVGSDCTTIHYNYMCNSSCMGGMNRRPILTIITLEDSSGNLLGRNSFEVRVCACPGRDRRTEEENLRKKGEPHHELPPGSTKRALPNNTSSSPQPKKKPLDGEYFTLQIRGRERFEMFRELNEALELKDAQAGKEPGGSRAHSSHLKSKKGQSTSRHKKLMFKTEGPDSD
T2 sequence (P04637 whole entry): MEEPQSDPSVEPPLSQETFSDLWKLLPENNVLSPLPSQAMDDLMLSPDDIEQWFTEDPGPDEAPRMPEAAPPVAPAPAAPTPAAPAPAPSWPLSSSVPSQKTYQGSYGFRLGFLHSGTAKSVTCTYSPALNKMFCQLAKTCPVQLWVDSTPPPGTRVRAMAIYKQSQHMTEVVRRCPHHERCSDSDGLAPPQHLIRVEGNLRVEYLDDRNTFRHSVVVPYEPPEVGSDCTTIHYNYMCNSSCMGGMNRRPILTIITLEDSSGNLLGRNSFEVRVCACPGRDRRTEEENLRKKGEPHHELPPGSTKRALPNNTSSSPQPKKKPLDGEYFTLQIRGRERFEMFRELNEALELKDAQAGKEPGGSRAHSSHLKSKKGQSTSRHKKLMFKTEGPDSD
T3 sequence (P04637 95-298 limits assumed): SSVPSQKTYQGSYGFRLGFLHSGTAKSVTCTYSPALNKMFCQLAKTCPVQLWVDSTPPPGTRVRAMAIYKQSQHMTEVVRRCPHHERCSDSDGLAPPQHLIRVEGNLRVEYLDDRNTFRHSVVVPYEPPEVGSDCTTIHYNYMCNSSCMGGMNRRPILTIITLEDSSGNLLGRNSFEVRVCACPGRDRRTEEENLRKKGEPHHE
T4 sequence (P02769 25-607 limits assumed): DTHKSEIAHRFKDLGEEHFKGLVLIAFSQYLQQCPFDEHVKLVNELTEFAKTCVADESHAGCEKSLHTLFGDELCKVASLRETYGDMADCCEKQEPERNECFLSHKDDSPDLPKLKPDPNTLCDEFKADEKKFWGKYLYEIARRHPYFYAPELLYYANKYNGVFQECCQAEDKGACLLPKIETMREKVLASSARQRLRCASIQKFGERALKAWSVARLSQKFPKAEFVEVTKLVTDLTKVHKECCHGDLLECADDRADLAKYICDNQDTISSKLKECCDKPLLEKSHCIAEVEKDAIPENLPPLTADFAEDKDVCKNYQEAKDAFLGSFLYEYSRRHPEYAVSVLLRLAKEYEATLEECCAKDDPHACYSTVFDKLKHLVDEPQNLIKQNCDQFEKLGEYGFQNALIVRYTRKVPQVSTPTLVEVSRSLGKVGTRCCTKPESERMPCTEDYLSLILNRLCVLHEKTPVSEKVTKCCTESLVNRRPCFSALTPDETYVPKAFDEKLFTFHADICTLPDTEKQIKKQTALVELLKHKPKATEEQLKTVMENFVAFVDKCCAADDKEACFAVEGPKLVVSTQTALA
T7 sequence (P04637 283-393 limits assumed): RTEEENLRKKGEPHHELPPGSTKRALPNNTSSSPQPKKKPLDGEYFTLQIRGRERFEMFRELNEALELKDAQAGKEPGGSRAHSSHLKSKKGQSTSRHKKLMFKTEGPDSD

Binder | binding result (CEA) | binding result [4] | binding result (bovine serum albumin [5]) | binding result [7] | Kd [8] [nM] | also measured
Fab clone 1159.8 (Fab, V domains shown, Soluble Fab selected by panning on the p53 central domain; detected through the myc tag (9E10)) VH: VQLLESGGGLIQPGRSLRLSCTASGFPFGDSAMTWFRQAPGKGLEWVGFIRSKAYGAATAYAASMKGRVTISRDDAKSIAYLHMSRLKIEDTAVYFCSRVKAGGPDYWGQGTLVTVSS VL: AAELTQSPLSLPVIPGEPASISCRSSQSLLHRNGYNYLDWYLQKPGQSPQLLIYLGSTRASGVPDRFSGSGSGTDFTLNIRRVEAEDVGVYYCMQGLQTPYTFGEGTKVEIK |  |  |  |  |  | binding result [1]: binds; binding result [2]: binds; binding result (bovine serum albumin [3]): no binding (tested: antigen coated at 1 µg/ml)
Fab clone 163.1 (Fab, V domains shown, myc tag on the C terminus of the heavy chain) VH: VQLLEQSGAEMKRPGASVTISCQASRQTFSGQYIHWVRQAPGQGLEWMGVINPSGGSANYAPSFQGRLSMSRDASTNTVYMKLSSLTSEDTAVYYCLSQALKYWGQGTLVAVSS VL: AAELTQSPDSLAVSLGERATINCKSNQSVLYNSNSKNYLAWYQQKPGQPPKLLIYWASTRESGVPDRFSGSGSGTDFTLTITSLQAEDVAVYYCQQYFSSPYTFGQGTKLEIK | no binding (tested: antigen coated at 5 µg/ml) | no binding (tested: antigen coated at 5 µg/ml) | no binding (tested: antigen coated at 1 µg/ml) | no binding | 11.9 | binding result [6]: no binding
Fab clone 163.5 (Fab, V domains shown) VH: VQLLEQSGAEVKRPGASVTISCQASRQDFSGQYIHWVRQAPGQGFEWMGIINPSGGSANYAPKFKGRLTMSRDSSTDTVYMTLTSLTSEDTAVYYCLLQALKHWGQGTLVAVSS VL: AAELTQSPDSLAVALGERATINCKSSQSVLYSLNNKNYLAWYQQKPGQPPKLLIHWASTRESGVPDRFSGSGSETDFTLTISSLQAEDVAVYYCQQYYTTPYTFGQGTKLEIK | no binding (tested: antigen coated at 5 µg/ml) | no binding (tested: antigen coated at 5 µg/ml) | no binding (tested: antigen coated at 1 µg/ml) | no binding |  | Kd [9]: 15 nM
Fab clone 163.17 (Fab, V domains shown, Human IgG1 kappa Fab (MCO1 vector, soluble from E. coli HB2151), myc tag on the C terminus of the heavy chain) VH: VQLLEQSGAEVKRPGASVTISCRASRQDFSGQYIHWVRQAPGQGFEWMGIINPSGGSANYAPKFKGRLTMSRDSSTETVYMTLTSLTSEDTAVYYCLLQALKHWGQGTLVGPSS VL: not shown | no binding (tested: antigen coated at 5 µg/ml) | no binding (tested: antigen coated at 5 µg/ml) | no binding (tested: antigen coated at 1 µg/ml) | no binding | 15.7 | 
whole anti-p53 antibody from CHO clone C4B4 (antibody, V domains shown, also called C4B4G4) VH: VQLLEQSGAEVKRPGASVTISCQASRQDFSGQYIHWVRQAPGQGFEWMGIINPSGGSANYAPKFKGRLTMSRDSSTDTVYMTLTSLTSEDTAVYYCLLQALKHWGQGTLVAVSS VL: AAELTQSPDSLAVALGERATINCKSSQSVLYSLNNKNYLAWYQQKPGQPPKLLIHWASTRESGVPDRFSGSGSETDFTLTISSLQAEDVAVYYCQQYYTTPYTFGQGTKLEIK |  |  |  |  |  | binding result [10]: no binding (tested: antigen coated at 2 µg/ml); binding result [11]: no binding (tested: antigen coated at 2 µg/ml); binding result (bovine serum albumin [12]): no binding (tested: antigen coated at 20 µg/ml); binding result (hen egg white lysozyme): no binding (tested: antigen coated at 10 µg/ml)
Fab clone 163.24 (Fab, V domains shown, Human IgG1 kappa Fab (MCO1 vector, soluble from E. coli HB2151), myc tag on the C terminus of the heavy chain) VH: VQLLEQSGAEVKRPGASVTISCQASRQNFSGQYIHWVRQAPGQGLEWMGIINPSGGSANYAPRFKGRLSMSRDSSTDTAYLTLTSLTSEDTAVYFCLLQSLKHWGQGTLVAVSS VL: not shown | no binding (tested: antigen coated at 5 µg/ml) | no binding (tested: antigen coated at 5 µg/ml) | no binding (tested: antigen coated at 1 µg/ml) | no binding | 13.8 | 
